# Test results reported in US20200024330A1.
# Tests used:
# Experiment in all cases: cell-based or functional assay
# [1] = target: HIV-1 Env of isolate JRCSF (HIV-1) (UniProt P20871)
# [2] = target: HIV-1 Env of isolate 92WR021 (HIV-1)
# [3] = target: HIV-1 Env of isolate 93WR029 (HIV-1)
# [4] = target: HIV-1 Env of isolate MG RM-D-014 (subtype D) (HIV-1)
# [5] = target: HIV-1 Env of isolate MGRM-F1-016 (HIV-1)
# [6] = target: HIV-1 Env of isolate MG RM-D-013 (subtype D) (HIV-1)
# [7] = target: HIV-1 Env of isolate MGRM-C-001 (pseudovirus) (HIV-1 isolate MGRM-C-001, subtype C)
# [8] = target: HIV-1 Env of isolate MGRM-F1-015 (HIV-1)
# [9] = target: HIV-1 Env of isolate MG RM-D-001 (subtype D) (HIV-1)
# [10] = target: HIV-1 Env of isolate 98IN022 (pseudovirus) (HIV-1 isolate 98IN022, subtype C)
# [11] = target: HIV-1 Env of isolate MG RM-D-005 (subtype D) (HIV-1)
# [12] = target: HIV-1 MGRM-Chronic-B-020 Env (pseudovirus) (HIV-1)
# [13] = target: HIV-1 Env of isolate MGRM-C-028 (pseudovirus) (HIV-1 isolate MGRM-C-028, subtype C)
# [14] = target: HIV-1 Env of isolate 94KE105 (subtype AC), on pseudovirus (HIV-1)
# [15] = target: HIV-1 Env of isolate 92BR020 (pseudovirus) (HIV-1 isolate 92BR020, subtype B)
# [16] = target: HIV-1 Env of isolate 92UG114 (HIV-1)
# [17] = target: HIV-1 Env of isolate 6535.3 (pseudovirus) (HIV-1 isolate 6535.3, subtype B)
# [18] = target: HIV-1 Env of isolate MGRM-Chronic-B-001 (HIV-1)
# [19] = target: HIV-1 Env of isolate MGRM-D-012 (HIV-1)
# [20] = target: HIV-1 Env of isolate MGRM-F1-021 (subtype F), on pseudovirus (HIV-1)
# [21] = target: HIV-1 Env of isolate MGRM-C-012 (HIV-1)
# [22] = target: HIV-1 Env of isolate 92UG024 (HIV-1)
# [23] = target: HIV-1 Env of isolate SF162 (HIV-1) (UniProt P19550)
# [24] = target: HIV-1 Env of isolate MGRM-D-013 (HIV-1)
# [25] = target: HIV-1 Env of isolate MGRM-D-002 (HIV-1)
# [26] = target: HIV-1 Env of isolate MGRM-AE-003 (CRF01_AE), on pseudovirus (HIV-1)
# [27] = target: HIV-1 Env of isolate MGRM-G-027 (subtype G) (HIV-1)
# [28] = target: HIV-1 JR-CSF Env V182A (HIV-1 (isolate JR-CSF)) (UniProt P20871)
# [29] = target: HIV-1 JR-CSF Env K168A (HIV-1 (isolate JR-CSF)) (UniProt P20871)
substance,measurement,setting,value
PGT-121 (antibody),Primary Neutralization Index (B cell culture well 4838 L06),[1],3.2
same,Primary Neutralization Index (B cell culture well 4873 E03),[1],2.2
same,"IC50 (µg/mL), pseudovirus neutralization",[2],0.009 µg/mL
same,"IC50 (µg/mL), pseudovirus neutralization",[3],> 50 µg/mL
4838_L06 (PGT-121) (antibody),"IC50 (µg/mL), pseudovirus neutralization",[4],0.009 µg/mL
same,IC50,[5],0.931 µg/mL
same,"IC50 (µg/mL), pseudovirus neutralization",[6],> 50 µg/mL
same,IC50 (µg/mL) neutralization,[7],17.5 µg/mL
same,IC50,[8],28.4 µg/mL
same,"IC50 (µg/mL), pseudovirus neutralization",[9],0.615 µg/mL
same,IC50 (µg/mL) neutralization,[10],0.007 µg/mL
same,"IC50 (µg/mL), pseudovirus neutralization",[11],> 50 µg/mL
same,"IC50, pseudovirus neutralization",[12],0.004 µg/mL
same,IC50 (µg/mL) neutralization,[13],0.472 µg/mL
PGT-122 (antibody),"IC50 (µg/mL), pseudovirus neutralization",[2],0.021 µg/mL
same,"IC50 (µg/mL), pseudovirus neutralization",[3],> 50 µg/mL
5329_C19 (PGT-136) (antibody),IC50,[1],> 50 µg/mL
same,neutralization IC50,[2],> 50 µg/mL
same,"IC50, single-round pseudovirus neutralization",[14],> 50 µg/mL
same,IC50 (µg/mL) neutralization,[15],8.61 µg/mL
same,IC50,[16],> 50 µg/mL
same,IC50 (µg/mL) neutralization,[17],> 50 µg/mL
same,IC50,[18],> 50 µg/mL
same,IC50,[19],> 50 µg/mL
same,"IC50, pseudovirus neutralization",[20],> 50 µg/mL
same,IC50,[21],> 50 µg/mL
same,IC50,[22],0.052 µg/mL
same,IC50,[23],0.482 µg/mL
same,neutralization IC50,[3],> 50 µg/mL
same,IC50,[24],> 50 µg/mL
same,IC50,[25],> 50 µg/mL
same,"IC50, single-round pseudovirus neutralization",[26],> 50 µg/mL
PGT-142 (4995_E20) (antibody),neutralization IC50,[27],> 50 µg/mL
5141_B17 (PGT-126) (antibody),"IC50 (µg/mL), pseudovirus neutralization",[4],0.03 µg/mL
same,IC50,[5],> 50 µg/mL
same,"IC50 (µg/mL), pseudovirus neutralization",[6],> 50 µg/mL
same,Fold IC50 increase relative to wild-type,[28],1.4 fold
same,IC50 (µg/mL) neutralization,[7],> 50 µg/mL
same,IC50,[8],> 50 µg/mL
same,"IC50 (µg/mL), pseudovirus neutralization",[9],0.084 µg/mL
same,IC50 (µg/mL) neutralization,[10],0.279 µg/mL
same,Fold IC50 increase relative to wild-type,[29],0.7 fold
same,"IC50 (µg/mL), pseudovirus neutralization",[11],0.792 µg/mL
same,"IC50, pseudovirus neutralization",[12],0.021 µg/mL
same,IC50 (µg/mL) neutralization,[13],0.196 µg/mL
PGT-141 (4964_G22; 4993_K13) (antibody),neutralization IC50,[27],> 50 µg/mL
5345_I01 (PGT-137) (antibody),IC50,[1],> 50 µg/mL
same,neutralization IC50,[2],3.52 µg/mL
same,"IC50, single-round pseudovirus neutralization",[14],18.5 µg/mL
same,IC50 (µg/mL) neutralization,[15],7.81 µg/mL
same,IC50,[16],> 50 µg/mL
same,IC50 (µg/mL) neutralization,[17],> 50 µg/mL
same,IC50,[18],> 50 µg/mL
same,IC50,[19],> 50 µg/mL
same,"IC50, pseudovirus neutralization",[20],> 50 µg/mL
same,IC50,[21],0.102 µg/mL
same,IC50,[22],0.106 µg/mL
same,IC50,[23],3.41 µg/mL
same,neutralization IC50,[3],> 50 µg/mL
same,IC50,[24],> 50 µg/mL
same,IC50,[25],> 50 µg/mL
same,"IC50, single-round pseudovirus neutralization",[26],> 50 µg/mL
4877_D15 (PGT-122) (antibody),"IC50 (µg/mL), pseudovirus neutralization",[4],0.012 µg/mL
same,IC50,[5],4.81 µg/mL
same,"IC50 (µg/mL), pseudovirus neutralization",[6],> 50 µg/mL
same,IC50 (µg/mL) neutralization,[7],19.1 µg/mL
same,IC50,[8],31.4 µg/mL
same,"IC50 (µg/mL), pseudovirus neutralization",[9],1.13 µg/mL
same,IC50 (µg/mL) neutralization,[10],0.032 µg/mL
same,"IC50 (µg/mL), pseudovirus neutralization",[11],> 50 µg/mL
same,"IC50, pseudovirus neutralization",[12],0.005 µg/mL
same,IC50 (µg/mL) neutralization,[13],2.22 µg/mL
5123_A06 (PGT-125) (antibody),"IC50 (µg/mL), pseudovirus neutralization",[4],> 50 µg/mL
same,IC50,[5],> 50 µg/mL
same,"IC50 (µg/mL), pseudovirus neutralization",[6],> 50 µg/mL
same,Fold IC50 increase relative to wild-type,[28],1.3 fold
same,IC50 (µg/mL) neutralization,[7],> 50 µg/mL
same,IC50,[8],> 50 µg/mL
same,"IC50 (µg/mL), pseudovirus neutralization",[9],2.84 µg/mL
same,IC50 (µg/mL) neutralization,[10],22.1 µg/mL
same,Fold IC50 increase relative to wild-type,[29],0.9 fold
same,"IC50 (µg/mL), pseudovirus neutralization",[11],> 50 µg/mL
same,"IC50, pseudovirus neutralization",[12],0.087 µg/mL
same,IC50 (µg/mL) neutralization,[13],14 µg/mL
